We go through two molecules from PMC11118528 (bioRxiv, 2024).

Where a chain is given by its changes, count along the chain named. In names and notes the source's numbering stands.

Test [1] deals with Rvb2-R350A (S. cerevisiae, UniProt Q12464 1-471, R350A). The test is described as follows: SEC. On the technique in general: Size exclusion chromatography separates by hydrodynamic size, large species first.
The target of test [2] is Rvb2 (S. cerevisiae, UniProt Q12464 1-471). The test is described as follows: SEC.
Rvb2, sequence (Q12464 whole entry): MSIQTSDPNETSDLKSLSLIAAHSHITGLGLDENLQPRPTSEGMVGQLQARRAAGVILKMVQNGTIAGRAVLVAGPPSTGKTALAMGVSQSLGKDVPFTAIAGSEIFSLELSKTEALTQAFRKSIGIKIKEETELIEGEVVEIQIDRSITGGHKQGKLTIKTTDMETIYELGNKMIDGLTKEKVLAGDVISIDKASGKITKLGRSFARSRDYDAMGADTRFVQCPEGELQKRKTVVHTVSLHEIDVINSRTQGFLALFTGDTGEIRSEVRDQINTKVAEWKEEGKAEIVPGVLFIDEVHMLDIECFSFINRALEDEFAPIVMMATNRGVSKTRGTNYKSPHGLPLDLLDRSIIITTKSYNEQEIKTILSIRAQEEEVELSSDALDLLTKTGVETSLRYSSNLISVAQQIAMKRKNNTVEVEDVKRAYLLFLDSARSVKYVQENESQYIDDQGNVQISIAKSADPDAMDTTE

Rvb2-R350A, sequence (Q12464 whole entry R350A): as the sequence (Q12464 whole entry) above, with R350A counted along it

B1: Rvb1 (enzyme)
chain: MVAISEVKENPGVNSSNSGAVTRTAAHTHIKGLGLDESGVAKRVEGGFVGQIEAREACGVIVDLIKAKKMSGRAILLAGGPSTGKTALALAISQELGPKVPFCPLVGSELYSVEVKKTETLMENFRRAIGLRIKETKEVYEGEVTELTPEDAENPLGGYGKTISHVIVGLKSAKGTKTLRLDPTIYESIQREKVSIGDVIYIEANTGAVKRVGRSDAYATEFDLETEEYVPLPKGEVHKKKEIVQDVTLHDLDVANARPQGGQDVISMMGQLLKPKKTEITEKLRQEVNKVVAKYIDQGVAELIPGVLFIDEVNMLDIEIFTYLNKALESNIAPVVVLASNRGMTTVRGTEDVISPHGVPPDLIDRLLIVRTLPYDKDEIRTIIERRATVERLQVESSALDLLATMGTETSLRYALQLLAPCGILAQTSNRKEIVVNDVNEAKLLFLDAKRSTKILETSANYL
As to B1, the binding result in test [1] and in test [2] was “binds” throughout.

B2: Rvb1-R366A (enzyme)
chain: B1 chain with R366A
As to B2, the binding result in test [1] and in test [2] was “binds” throughout.
